Experimental data from paper PMC10733448, “An aptamer and Au/Si CCA based SERS sensor for ultra-sensitive detection of Vimentin during EMT in gastric cancer”.

Target: Vimentin (UniProt P08670 2-466)
Assay: SERS strand-displacement sensor (signal decrease on Vimentin addition); competes with hybridized complementary strand S3 (5-FAM); binding buffer, salt, pH and temperature not given in the material; aptamer on Au/Si CCA, complementary strand on AuNCs, 6-MCH blocking
Conditions: label: none on the aptamer; reporter 5-FAM is on the complementary strand S3; before protein addition hybridized over its 3' 18 nt to SH-S3-5-FAM on Au nanocubes

Sequence of Vimentin (P08670 2-466): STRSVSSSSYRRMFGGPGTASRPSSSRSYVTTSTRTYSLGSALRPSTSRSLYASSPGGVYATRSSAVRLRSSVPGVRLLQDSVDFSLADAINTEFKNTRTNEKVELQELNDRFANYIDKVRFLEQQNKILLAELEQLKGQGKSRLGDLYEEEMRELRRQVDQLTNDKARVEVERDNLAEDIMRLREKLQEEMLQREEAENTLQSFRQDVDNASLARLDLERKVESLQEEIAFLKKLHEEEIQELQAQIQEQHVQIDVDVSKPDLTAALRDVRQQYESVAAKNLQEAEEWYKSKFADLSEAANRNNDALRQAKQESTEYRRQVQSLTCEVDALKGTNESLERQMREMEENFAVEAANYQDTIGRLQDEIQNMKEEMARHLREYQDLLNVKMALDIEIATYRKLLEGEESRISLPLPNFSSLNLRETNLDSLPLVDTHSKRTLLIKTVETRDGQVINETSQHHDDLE

TAGACCCAGCTGGTCCGGAAAATAAGATGTCACGGATCCTC (ssDNA, thiol (SH) printed at 5' end) [Vimentin aptamer]: binds.
